Assay results taken from patent publication EP4499701A1 (dated 2025).

Target: T1, human FGFR2b expressed on cells (human, UniProt P21802-3 22-822)
T1 construct: whole, on cells; Used for the CHOK1 transfectants (FACS), the Ba/F3 cells with full-length human FGFR2b (ADCC) and the receptor on SNU-16 cells (signalling, proliferation); also called hFGFR2b-expressing CHOK1 cells; CHOK1-FGFR2IIIb transfectants
Assay: flow cytometry on CHOK1 cells expressing hFGFR2b

T1 sequence (P21802 other isoform, or with tags, fused parts or gaps): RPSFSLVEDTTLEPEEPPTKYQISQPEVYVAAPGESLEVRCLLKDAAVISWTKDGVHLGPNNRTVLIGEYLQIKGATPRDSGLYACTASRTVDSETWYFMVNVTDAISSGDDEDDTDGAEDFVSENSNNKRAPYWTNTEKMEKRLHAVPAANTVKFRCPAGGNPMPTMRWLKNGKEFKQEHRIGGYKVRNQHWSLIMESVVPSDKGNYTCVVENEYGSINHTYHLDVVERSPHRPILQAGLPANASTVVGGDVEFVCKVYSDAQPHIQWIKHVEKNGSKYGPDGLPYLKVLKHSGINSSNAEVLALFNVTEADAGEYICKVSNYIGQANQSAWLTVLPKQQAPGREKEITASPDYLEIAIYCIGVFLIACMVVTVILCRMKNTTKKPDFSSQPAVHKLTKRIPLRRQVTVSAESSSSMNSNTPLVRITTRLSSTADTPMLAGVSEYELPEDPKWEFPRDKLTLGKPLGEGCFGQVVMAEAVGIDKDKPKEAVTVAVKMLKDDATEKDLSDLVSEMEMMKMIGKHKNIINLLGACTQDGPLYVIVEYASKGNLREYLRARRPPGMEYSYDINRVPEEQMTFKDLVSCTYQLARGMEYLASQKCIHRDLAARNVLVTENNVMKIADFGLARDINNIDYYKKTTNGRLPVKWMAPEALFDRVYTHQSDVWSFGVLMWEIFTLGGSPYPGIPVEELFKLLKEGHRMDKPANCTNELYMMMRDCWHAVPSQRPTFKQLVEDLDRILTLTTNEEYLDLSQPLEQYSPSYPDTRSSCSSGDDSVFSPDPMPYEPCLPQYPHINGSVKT

binding result: binds
B1: HC18 (antibody, human IgG1, kappa, V domains shown)
VH: EVQLQQSGTVLARPGASVKMSCKTSGYTFTSYWMHWVKQRPGQGLEWIGSIYPENSDTSYNQKFKGKAKLTAVTSASTAYMDLSSLTNEDSAVYYCSIYHGYDGDYWGQGTTLTVSS
VL: QIVLTQSPAIMSASPGEKVTITCSASSSVSYMYWFQQKPGTSPKLWIYSTSNLASGVPARFSGSGSGTSYSLTISRMEAEDAATYYCQQRSSYPYTFGGGTKLEIKR
notes: also called mAb HC18; the antibody of the present disclosure
